Measured values taken from article PMC4337239, “Polyol specificity of recombinant Arabidopsis thaliana sorbitol dehydrogenase studied by enzyme kinetics and in silico modeling” (Frontiers in Plant Science, 2015).

Experiments:
Assay in all cases: purified protein
purified protein [1] = substrate: OC[C@@H](O)[C@@H](O)[C@H](O)[C@@H](O)CO; assay type: biochemical, Arabidopsis thaliana; conditions: 1.36 mM NAD+, 100 mM Tris-HCl pH 9, 25 °C, Michaelis-Menten fit
purified protein [2] = substrate: OC[C@@H](O)[C@@H](O)[C@@H](O)CO; conditions: 1.36 mM NAD+, 100 mM Tris-HCl pH 9, 25 °C, Michaelis-Menten fit
purified protein [3] = substrate: OC[C@@H](O)[C@H](O)[C@@H](O)CO; conditions: 1.36 mM NAD+, 100 mM Tris-HCl pH 9, 25 °C, fit with substrate inhibition

B1: recombinant AtSDH (Arabidopsis thaliana) (protein)
chain: MGKGGMSQGEGSKVEEENMAAWLVGINTLKIQPFLLPSVGPHDVRVRMKAVGICGSDVHYLKTMRCADFVVKEPMVIGHECAGIIEEVGEEVKHLVVGDRVALEPGISCWRCNLCREGRYNLCPEMKFFATPPVHGSLANQVVHPADLCFKLPENVSLEEGAMCEPLSVGVHACRRAEVGPETNVLVMGAGPIGLVTMLAARAFSVPRIVIVDVDENRLAVAKQLGADEIVQVTTNLEDVGSEVEQIQKAMGSNIDVTFDCAGFNKTMSTALAATRCGGKVCLVGMGHGIMTVPLTPAAAREVDVVGVFRYKNTWPLCLEFLTSGKIDVKPLITHRFGFSQKEVEDAFETSARGSNAIKVMFNL
notes: full length 364 residues; N-terminal 6xHis tag cut off by TEV protease; pEXP5-NT/TOPO, cell-free in vitro expression (Expressway); oligomeric state not determined
Km (purified protein [1]): 960 ± 70 µM | kcat (purified protein [1]): 2.13 ± 0.03 s⁻¹ | kcat/Km (purified protein [1]): 2230 ± 170 M⁻¹ s⁻¹ | Km (purified protein [2]): 1050 ± 100 µM | kcat (purified protein [2]): 1.83 s⁻¹ | kcat/Km (purified protein [2]): 1740 M⁻¹ s⁻¹ | Km (purified protein [3]): 270 ± 40 µM | kcat (purified protein [3]): 2.12 s⁻¹ | kcat/Km (purified protein [3]): 7740 M⁻¹ s⁻¹
